{"source": "paper PMC9391305", "target": "endogenous PKM2 of murine PDA^T and PDA^M cells (mouse (endogenous in PDA^T and PDA^M cells)) (UniProt P52480)", "test": "cross-linking", "data": [{"substance": "endogenous PKM2 of murine PDA^T and PDA^M cells, P52480 1-531 (enzyme; other documents disagree on this pair)", "values": [{"measurement": "stoichiometry N", "value": 4}]}]}
